Values belong to the binder of their own block, whether it stands above or below them.
Legend:
[1] = molecular target: T1, human DLL3 on cells (HEK293T cells expressing human DLL3; SHP-77 cells) (human, UniProt Q9NYJ7 27-618); test: cell-based or functional assay
T1 sequence (looked up): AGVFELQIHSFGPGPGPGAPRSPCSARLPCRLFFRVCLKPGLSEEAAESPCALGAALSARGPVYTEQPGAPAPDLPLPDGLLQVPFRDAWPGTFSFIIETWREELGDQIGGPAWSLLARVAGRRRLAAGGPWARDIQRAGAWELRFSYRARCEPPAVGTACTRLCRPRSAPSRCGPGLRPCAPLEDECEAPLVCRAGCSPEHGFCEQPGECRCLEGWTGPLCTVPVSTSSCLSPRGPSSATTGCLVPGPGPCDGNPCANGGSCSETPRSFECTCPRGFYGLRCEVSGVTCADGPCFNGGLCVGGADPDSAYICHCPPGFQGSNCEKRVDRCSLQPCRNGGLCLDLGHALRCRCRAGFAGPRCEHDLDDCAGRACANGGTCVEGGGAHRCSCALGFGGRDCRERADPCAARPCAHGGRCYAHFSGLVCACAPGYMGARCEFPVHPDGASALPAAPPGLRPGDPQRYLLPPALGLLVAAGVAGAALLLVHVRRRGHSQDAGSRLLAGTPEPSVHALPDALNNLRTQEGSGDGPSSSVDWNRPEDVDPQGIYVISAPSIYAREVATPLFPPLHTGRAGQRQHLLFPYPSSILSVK

[2] = molecular target: T1, human DLL3 on cells (HEK293T cells …); test: flow cytometry on SHP-77 cells (endogenous DLL3), H435Q-Fc format
[3] = molecular target: T2, human DLL3 (recombinant antigen) (human, UniProt Q9NYJ7 27-492, limits assumed); test: affinity to hDLL3, H435Q-Fc format; method not given
T2 construct: also called hDLL3
T2 sequence (looked up): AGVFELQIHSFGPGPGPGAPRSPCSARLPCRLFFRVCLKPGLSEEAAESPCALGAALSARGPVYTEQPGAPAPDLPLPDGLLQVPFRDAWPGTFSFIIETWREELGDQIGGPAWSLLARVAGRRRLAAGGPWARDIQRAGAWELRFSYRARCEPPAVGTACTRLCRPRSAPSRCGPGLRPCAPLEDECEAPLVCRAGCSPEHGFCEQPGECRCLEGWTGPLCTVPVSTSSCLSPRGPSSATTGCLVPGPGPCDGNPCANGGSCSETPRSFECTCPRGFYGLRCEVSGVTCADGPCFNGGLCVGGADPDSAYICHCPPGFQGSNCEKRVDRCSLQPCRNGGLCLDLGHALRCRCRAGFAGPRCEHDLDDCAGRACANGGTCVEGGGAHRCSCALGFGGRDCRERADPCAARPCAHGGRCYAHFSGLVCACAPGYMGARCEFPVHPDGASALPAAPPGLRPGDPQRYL

[4] = molecular target: T3, human FOLR1 (recombinant antigen) (human, UniProt P15328 25-234, limits assumed); test: ELISA on hFOLR1
T3 construct: also called hFOLR1

[5] = molecular target: T4, mouse FOLR1 (recombinant antigen) (mouse, UniProt P35846 25-232, limits assumed); test: ELISA on mFOLR1
T4 construct: also called mFOLR1

FOLR1 on OVCAR3 cells = molecular target: T5, FOLR1 on OVCAR3 cells (UniProt P15328 25-234); test: cell binding to FOLR1-positive OVCAR3 cells
T5 construct: whole, on cells; OVCAR3 is a human ovarian cancer line; also called FOLR1-positive OVCAR3 cells

[6] = molecular target: T2, human DLL3 (recombinant antigen); test: BLI (Octet), construct captured on AHC biosensor, hDLL3 as analyte
[7] = molecular target: T3, human FOLR1 (recombinant antigen); test: BLI (Octet), construct captured on AHC biosensor, hFOLR1 as analyte
[8] = molecular target: T4, mouse FOLR1 (recombinant antigen); test: BLI (Octet), construct captured on AHC biosensor, mFOLR1 as analyte
[9] = molecular target: T6, mouse DLL3 (recombinant antigen) (mouse, UniProt O88516 25-477, limits assumed); test: BLI (Octet), construct captured on AHC biosensor, mDLL3 as analyte; row label taken as a misprint for the bispecific
T6 construct: also called mDLL3
T6 sequence (looked up): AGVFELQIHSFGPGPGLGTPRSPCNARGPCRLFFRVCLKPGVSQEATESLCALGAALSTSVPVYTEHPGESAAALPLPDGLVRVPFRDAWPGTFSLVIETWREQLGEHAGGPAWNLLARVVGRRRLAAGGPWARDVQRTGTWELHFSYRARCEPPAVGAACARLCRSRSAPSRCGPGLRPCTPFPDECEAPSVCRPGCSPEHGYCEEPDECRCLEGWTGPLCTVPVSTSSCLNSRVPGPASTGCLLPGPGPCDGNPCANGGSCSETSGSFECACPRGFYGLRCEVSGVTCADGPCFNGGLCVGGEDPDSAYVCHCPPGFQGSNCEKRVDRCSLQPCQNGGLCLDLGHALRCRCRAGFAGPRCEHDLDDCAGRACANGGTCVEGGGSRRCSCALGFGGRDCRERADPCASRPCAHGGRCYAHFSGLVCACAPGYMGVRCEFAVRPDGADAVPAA

[10] = molecular target: T2, human DLL3 (recombinant antigen); test: BLI (Octet), VHH-Fc captured on AHC biosensor, hDLL3 as analyte
[11] = molecular target: T6, mouse DLL3 (recombinant antigen); test: BLI (Octet), VHH-Fc captured on AHC biosensor, mDLL3 as analyte
[12] = molecular target: T3, human FOLR1 (recombinant antigen); test: BLI (Octet), VHH-Fc captured on AHC biosensor, hFOLR1 as analyte
[13] = molecular target: T4, mouse FOLR1 (recombinant antigen); test: BLI (Octet), VHH-Fc captured on AHC biosensor, mFOLR1 as analyte

T3 sequence (P15328 25-234 limits assumed): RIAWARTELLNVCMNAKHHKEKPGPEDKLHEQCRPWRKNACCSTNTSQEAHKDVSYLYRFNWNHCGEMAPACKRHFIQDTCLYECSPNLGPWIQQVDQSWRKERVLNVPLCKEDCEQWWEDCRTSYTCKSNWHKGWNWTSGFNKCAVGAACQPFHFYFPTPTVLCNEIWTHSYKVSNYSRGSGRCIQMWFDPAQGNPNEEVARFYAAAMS
T5 sequence (P15328 25-234): as the sequence (P15328 25-234 limits assumed) above
T4 sequence (P35846 25-232 limits assumed): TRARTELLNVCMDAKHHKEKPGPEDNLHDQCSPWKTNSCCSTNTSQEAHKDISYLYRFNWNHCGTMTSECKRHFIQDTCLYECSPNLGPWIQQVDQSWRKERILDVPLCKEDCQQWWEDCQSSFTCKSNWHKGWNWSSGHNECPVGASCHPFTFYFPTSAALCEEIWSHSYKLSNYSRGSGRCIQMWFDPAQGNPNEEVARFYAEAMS

H435Q-Fc SHP-77 Internalization FOI [1]: 1.19 fold over isotype
EC50 [2]: 1.16 nM
Kd [3]: 0.2 nM
B1: Clone 100 VHH-Fc, H435Q-Fc format (Fc fusion)
chain: QVQLVESGGGSVQPGGSLRLSCAASGIVFNSDVMGWYRQVPGKPRELVATITGGGSTNYATSVKGRFTISRDNAKNTVYLQMNSLRPEDTAVYYCNGRRGDSMLAFWAQGTQVTVSS
notes: also called 100 (H435Q-Fc); not shown: hinge and human IgG1 Fc with H435Q (EU)

EC50 [4]: 0.13 nM
EC50 [5]: 0.08 nM
EC50 (FOLR1 on OVCAR3 cells): 0.7 nM
Kd [6]: 1.53 nM
koff [6]: 0.000306 s⁻¹
kon [6]: 200000 M⁻¹ s⁻¹
Kd [7]: 2.75 nM
koff [7]: 0.00111 s⁻¹
kon [7]: 405000 M⁻¹ s⁻¹
Kd [8]: 8.32 nM
koff [8]: 0.00407 s⁻¹
kon [8]: 490000 M⁻¹ s⁻¹
Kd [9]: 3.09 nM
koff [9]: 0.000684 s⁻¹
kon [9]: 222000 M⁻¹ s⁻¹
B2: Anti-FOLR1x2; Anti-DLL3x2; GGGGSx3 (bispecific tetravalent VHH-VHH-Fc) (bispecific antibody, not shown: a dimerising Fc or GST)
chain: QVQLVESGGGLVQPGGSLRLSCAASGFTVSNSVMAWYRQTPGNEREFVAIINSIGITNYADSVKGRFTISRDNSKNTLYLQMNSLRAEDTAVYVCNRNFDRIYWGQGTLVTVSSGGGGSGGGGSGGGGSEVQLVESGGGEVQPGGSLRLSCAASGSIFSINAMGWYRQAPGKQRELVAGFTGDTNTIYAESVKGRFTISRDNAKNTVYLQMSSLRAEDTAVYYCAADVQLFSRDYEFYWGQGTLVTVKP
notes: homodimer; 104,948 Da; also called (GGGGS)3

H435Q-Fc SHP-77 Internalization FOI [1]: 1.19 fold over isotype
EC50 [2]: 1.2 nM
Kd [3]: 1.08 nM
B5: Clone 24 VHH-Fc, H435Q-Fc format (Fc fusion)
chain: QVQYVESGGGLVQPGGSLRLSCAASGFTFSSYRINWYRQPPGKGRELVGSITDTGSTNYADSVKGRFTISRDNAKNTVYLQMSSLKPEDTAVYYCRAPTIAAYWGQGTQVTVSS
notes: also called 24 (H435Q-Fc); not shown: hinge and human IgG1 Fc with H435Q (EU)

H435Q-Fc SHP-77 Internalization FOI [1]: 1.27 fold over isotype
EC50 [2]: 0.74 nM
Kd [3]: 0.72 nM
B7: Clone 107 VHH-Fc, H435Q-Fc format (Fc fusion)
chain: QVQLVESGGGLVQAGDSLRLSCVASDRTFSSYAVGWFRQAPGKEREFVAAISWNGGRTLYTDSVTGRFTISRDNAKSTVYLQMNGLKPEDTAVYYCAARPAAPTRRLEYDYWGQGTQVTVSS
notes: not shown: hinge and human IgG1 Fc with H435Q (EU)

EC50 [4]: 0.12 nM
EC50 [5]: 0.08 nM
binding result [10]: no binding
binding result [11]: no binding
Kd [12]: 2.19 nM
koff [12]: 0.000828 s⁻¹
kon [12]: 379000 M⁻¹ s⁻¹
Kd [13]: 4.67 nM
koff [13]: 0.00312 s⁻¹
kon [13]: 668000 M⁻¹ s⁻¹
B8: FOLR1 VHH (VHH-Fc control) (Fc fusion, not shown: a dimerising Fc or GST)
chain: QVQLVESGGGLVQPGGSLRLSCAASGFTVSNSVMAWYRQTPGNEREFVAIINSIGITNYADSVKGRFTISRDNSKNTLYLQMNSLRAEDTAVYVCNRNFDRIYWGQGTLVTVSS

The remaining lines, values behind:

B3: Anti-FOLR1x2; Anti-DLL3x2; GGSx3 (bispecific tetravalent VHH-VHH-Fc) (bispecific antibody, not shown: a dimerising Fc or GST)
chain: QVQLVESGGGLVQPGGSLRLSCAASGFTVSNSVMAWYRQTPGNEREFVAIINSIGITNYADSVKGRFTISRDNSKNTLYLQMNSLRAEDTAVYVCNRNFDRIYWGQGTLVTVSSGGSGGSGGSEVQLVESGGGEVQPGGSLRLSCAASGSIFSINAMGWYRQAPGKQRELVAGFTGDTNTIYAESVKGRFTISRDNAKNTVYLQMSSLRAEDTAVYYCAADVQLFSRDYEFYWGQGTLVTVKP
notes: homodimer; 104,263 Da; also called (GGS)3
EC50 [4]: 0.14 nM
EC50 [5]: 0.09 nM
EC50 (FOLR1 on OVCAR3 cells): 0.58 nM
Kd [6]: 1.43 nM
koff [6]: 0.000312 s⁻¹
kon [6]: 219000 M⁻¹ s⁻¹
Kd [7]: 2.68 nM
koff [7]: 0.00102 s⁻¹
kon [7]: 381000 M⁻¹ s⁻¹
Kd [8]: 7 nM
koff [8]: 0.00399 s⁻¹
kon [8]: 553000 M⁻¹ s⁻¹
Kd [9]: 2.92 nM
koff [9]: 0.000659 s⁻¹
kon [9]: 226000 M⁻¹ s⁻¹

B4: Clone 186 VHH-Fc, H435Q-Fc format (Fc fusion)
chain: QVQVVESGGGLVQPGGSLTLSCAASGFDFSTYTVNWYRQAPGKEREKVARISSTGTTTNYANSAKGRFTLSRDNAKNRVYLQMNNLKPEDTAVYFCNFERFDSNYWGQGTQVTVSS
notes: also called 186 (H435Q-Fc); not shown: hinge and human IgG1 Fc with H435Q (EU)
H435Q-Fc SHP-77 Internalization FOI [1]: 1.18 fold over isotype
EC50 [2]: 0.47 nM
Kd [3]: 0.55 nM

B6: Anti-FOLR1x2; Anti-DLL3x2; GGSx4 (bispecific tetravalent VHH-VHH-Fc) (bispecific antibody, not shown: a dimerising Fc or GST)
chain: QVQLVESGGGLVQPGGSLRLSCAASGFTVSNSVMAWYRQTPGNEREFVAIINSIGITNYADSVKGRFTISRDNSKNTLYLQMNSLRAEDTAVYVCNRNFDRIYWGQGTLVTVSSGGSGGSGGSGGSEVQLVESGGGEVQPGGSLRLSCAASGSIFSINAMGWYRQAPGKQRELVAGFTGDTNTIYAESVKGRFTISRDNAKNTVYLQMSSLRAEDTAVYYCAADVQLFSRDYEFYWGQGTLVTVKP
notes: homodimer; 104,665 Da; also called (GGS)4
EC50 [4]: 0.11 nM
EC50 [5]: 0.07 nM
EC50 (FOLR1 on OVCAR3 cells): 0.59 nM
Kd [6]: 1.24 nM
koff [6]: 0.000267 s⁻¹
kon [6]: 215000 M⁻¹ s⁻¹
Kd [7]: 2.32 nM
koff [7]: 0.000932 s⁻¹
kon [7]: 401000 M⁻¹ s⁻¹
Kd [8]: 7.99 nM
koff [8]: 0.00386 s⁻¹
kon [8]: 483000 M⁻¹ s⁻¹
Kd [9]: 2.88 nM
koff [9]: 0.000642 s⁻¹
kon [9]: 223000 M⁻¹ s⁻¹

B9: Clone 126 VHH-Fc, H435Q-Fc format (Fc fusion)
chain: QVQLVESGGGMVQPGGSLRLSCAASGITFSMYSMSWYRQPPGKQRELVAATTTFGSTNYADSVKGRFTISRDNAKNTVYLQMNSLKPEDTAVYLCNARFTSEEYWGQGTQVTVSS
notes: as for B7
H435Q-Fc SHP-77 Internalization FOI [1]: 1.19 fold over isotype
EC50 [2]: 0.44 nM
Kd [3]: < 1 nM

From patent US20260137822A1 (ABDERA THERAPEUTICS, published 2026)
